*1 amine or outer side, *2 acyl side, *3 side chain or, on linkers, in order; H or OH if unused. Where no end group is shown, it is not given here. Side-chain parts run from the residue outwards. [ ]: non-standard residue; d: D form. The star is where a group is joined. Decanoyl(10-(4-HOOC-PhO)) = O=C(O)c1ccc(OCCCCCCCCCC(=O)*)cc1; C16 diacid = O=C(O)CCCCCCCCCCCCCCC(=O)*; γGlu = O=C(O)[C@H](CCC(=O)[*:2])N[*:1]; C12 diacid = O=C(O)CCCCCCCCCCC(=O)*; 13‑carboxytridecanoyl = C14 diacid; AEEA = NCCOCCOCC(=O)O; Aib = CC(C)(N)C(=O)O
B1: GLP-1 derivative of Example 15: [Lys8,Glu22,Arg26,Lys31,Gly34]-GLP-1-(7-34)-peptide (peptide)
peptide: HAEGTFTSDVSK([AEEA-AEEA-γGlu-13‑carboxytridecanoyl])YLEEQAAREFIAK([AEEA-AEEA-γGlu-13‑carboxytridecanoyl])LVG
notes: Name prints Lys8, evidently Lys18 (acylation at Nε18)
B2: GLP-1 derivative of Example 108: [Aib8,Lys18,Arg34]-GLP-1-(7-37)-peptide (peptide)
peptide: HXEGTFTSDVSKYLEGQAAKEFIAWLVRGRG
modifications: Aib8; Lys18 and Lys26 each Nε-acylated with 11-carboxyundecanoyl-gGlu-gGlu-OEG-OEG
B3: GLP-1 derivative of Example 135: [Aib8,Lys18,Glu22,Val25,Arg26,Lys31,Arg34]-GLP-1-(7-37)-peptide amide (peptide)
peptide: H[Aib]EGTFTSDVSK([AEEA-AEEA-AEEA-AEEA-γGlu-C16 diacid])YLEEQAVREFIAK([AEEA-AEEA-AEEA-AEEA-γGlu-C16 diacid])LVRGRG-NH2
modifications: N-terminus assumed
SMILES: CC[C@H](C)[C@H](NC(=O)[C@H](Cc1ccccc1)NC(=O)[C@H](CCC(=O)O)NC(=O)[C@H](CCCNC(=N)N)NC(=O)[C@@H](NC(=O)[C@H](C)NC(=O)[C@H](CCC(N)=O)NC(=O)[C@H](CCC(=O)O)NC(=O)[C@H](CCC(=O)O)NC(=O)[C@H](CC(C)C)NC(=O)[C@H](Cc1ccc(O)cc1)NC(=O)[C@H](CCCCNC(=O)COCCOCCNC(=O)COCCOCCNC(=O)COCCOCCNC(=O)COCCOCCNC(=O)CC[C@H](NC(=O)CCCCCCCCCCCCCCC(=O)O)C(=O)O)NC(=O)[C@H](CO)NC(=O)[C@@H](NC(=O)[C@H](CC(=O)O)NC(=O)[C@H](CO)NC(=O)[C@@H](NC(=O)[C@H](Cc1ccccc1)NC(=O)[C@@H](NC(=O)CNC(=O)[C@H](CCC(=O)O)NC(=O)C(C)(C)NC(=O)[C@@H](N)Cc1c[nH]cn1)[C@@H](C)O)[C@@H](C)O)C(C)C)C(C)C)C(=O)N[C@@H](C)C(=O)N[C@@H](CCCCNC(=O)COCCOCCNC(=O)COCCOCCNC(=O)COCCOCCNC(=O)COCCOCCNC(=O)CC[C@H](NC(=O)CCCCCCCCCCCCCCC(=O)O)C(=O)O)C(=O)N[C@@H](CC(C)C)C(=O)N[C@H](C(=O)N[C@@H](CCCNC(=N)N)C(=O)NCC(=O)N[C@@H](CCCNC(=N)N)C(=O)NCC(N)=O)C(C)C
B4: GLP-1 derivative of Example 115: [Aib8,Lys18,Arg34]-GLP-1-(7-37)-peptide (peptide)
peptide: B2 peptide
modifications: Aib8; Lys18 and Lys26 each Nε-acylated with 10-(4-carboxyphenoxy)decanoyl-OEG-OEG-gGlu

target: T1, human GLP-1 receptor (human, UniProt P43220 24-463); assay: SPA, 2.0% vs 0.005% HSA
T1 construct: whole, on cells; Used as purified membranes of the transfected hamster cells, not whole cells; also called hGLP-1
Description: (§1) A shift in the binding affinity, $IC50$, is an indication that the derivative in question binds to albumin, and thereby a prediction of a potential protracted pharmacokinetic profile of the derivative in question in animal models.
(§2) 25 ul (microliter) of test compounds are added to Optiplate. HSA ("high albumin" experiment containing 2% HSA), or buffer ("low albumin" experiment containing 0.005% HSA), was added (50 ul). 5-10 µg protein/sample was added (50 ul) corresponding to 0.1-0.2 mg protein/ml (to be preferably optimised for each membrane preparation). SPA-particles (Wheatgerm agglutinin SPA beads, Perkin Elmer, #RPNQ0001) were added in an amount of 0.5 mg/well (50 ul). […] The plates were sealed with PlateSealer and incubated for 120 minutes at 30° C. while shaking. The plates were centrifuged (1500 rpm, 10 min) and counted in Topcounter.

| Binder | ratio IC50 high HSA/IC50 low HSA |
| --- | --- |
| HAEGTFTSDVSK([AEEA-AEEA-γGlu-13‑carboxytridecanoyl])YLEEQAVREFIAK([AEEA-AEEA-γGlu-13‑carboxytridecanoyl])LVG [GLP-1 derivative of Example 10: [Lys18,Glu22,Val25,Arg26,Lys31,Gly34]-GLP-1-(7-34)-peptide] | > 1 |
| HAEGTFTSDVSK([AEEA-AEEA-13‑carboxytridecanoyl])YLEEQAARK([AEEA-AEEA-13‑carboxytridecanoyl])FIAHLVG [GLP-1 derivative of Example 28: [Lys18,Glu22,Arg26,Lys27,His31,Gly34]-GLP-1-(7-34)-peptide] | > 1 |
| HSEGTFTSDVSK([AEEA-AEEA-γGlu-C12 diacid])YLEEQAVREFIAK([AEEA-AEEA-γGlu-C12 diacid])LVG [GLP-1 derivative of Example 25: [Ser8,Lys18,Glu22,Val25,Arg26,Lys31,Gly34]-GLP-1-(7-34)-peptide] | > 1 |
| HAEGTFTSDVSK([γGlu-AEEA-AEEA-13‑carboxytridecanoyl])YLEEQAARK([γGlu-AEEA-AEEA-13‑carboxytridecanoyl])FIAHLVG [GLP-1 derivative of Example 29: [Lys18,Glu22,Arg26,Lys27,His31,Gly34]-GLP-1-(7-34)-peptide] | > 1 |
| HSEGTFTSDVSK([AEEA-AEEA-γGlu-13‑carboxytridecanoyl])YLEEQAVREFIAK([AEEA-AEEA-γGlu-13‑carboxytridecanoyl])LVG [GLP-1 derivative of Example 14: [Ser8,Lys18,Glu22,Val25,Arg26,Lys31,Gly34]-GLP-1-(7-34)-peptide] | > 1 |
| HAEGTFTSDVSK([AEEA-AEEA-γGlu-Decanoyl(10-(4-HOOC-PhO))])YLEEQAARK([AEEA-AEEA-γGlu-Decanoyl(10-(4-HOOC-PhO))])FIAHLVG [GLP-1 derivative of Example 30: [Lys18,Glu22,Arg26,Lys27,His31,Gly34]-GLP-1-(7-34)-peptide] | > 1 |
| B1 | > 1 |
| H[Aib]EGTFTSDVSK([AEEA-AEEA-γGlu-Decanoyl(10-(4-HOOC-PhO))])YLEGQAAK([AEEA-AEEA-γGlu-Decanoyl(10-(4-HOOC-PhO))])EFIAWLVQGRG [GLP-1 derivative of Example 92: [Aib8,Lys18,Gln34]-GLP-1-(7-37)-peptide] | > 1 |
| B2 | > 1 |
| B3 | > 1 |
| H[Aib]EGTLTSDVSK([AEEA-AEEA-γGlu-Decanoyl(10-(4-HOOC-PhO))])YLEGQAAK([AEEA-AEEA-γGlu-Decanoyl(10-(4-HOOC-PhO))])EFIAWLVQGRG [GLP-1 derivative of Example 139: [Aib8,Leu12,Lys18,Gln34]-GLP-1-(7-37)-peptide] | > 1 |
| H[Aib]EGTFTSDVSK([AEEA-AEEA-γGlu-13‑carboxytridecanoyl])YLEGQAVREFIAK([AEEA-AEEA-γGlu-13‑carboxytridecanoyl])LVRGRG [GLP-1 derivative of Example 112: [Aib8,Lys18,Val25,Arg26,Lys31,Arg34]-GLP-1-(7-37)-peptide] | > 1 |
| B4 | > 1 |

target: T1, human GLP-1 receptor; assay: SPA, displacement of 125I-GLP-1(7-36)NH2, 0.005% HSA
Description: as §1, §2

| Binder | IC50 |
| --- | --- |
| HAEGTFTSDVSK([AEEA-AEEA-γGlu-13‑carboxytridecanoyl])YLEEQAVREFIAK([AEEA-AEEA-γGlu-13‑carboxytridecanoyl])LVG [GLP-1 derivative of Example 10: [Lys18,Glu22,Val25,Arg26,Lys31,Gly34]-GLP-1-(7-34)-peptide] | < 1000 nM |
| HAEGTFTSDVSK([AEEA-AEEA-13‑carboxytridecanoyl])YLEEQAARK([AEEA-AEEA-13‑carboxytridecanoyl])FIAHLVG [GLP-1 derivative of Example 28: [Lys18,Glu22,Arg26,Lys27,His31,Gly34]-GLP-1-(7-34)-peptide] | < 1000 nM |
| HSEGTFTSDVSK([AEEA-AEEA-γGlu-C12 diacid])YLEEQAVREFIAK([AEEA-AEEA-γGlu-C12 diacid])LVG [GLP-1 derivative of Example 25: [Ser8,Lys18,Glu22,Val25,Arg26,Lys31,Gly34]-GLP-1-(7-34)-peptide] | < 1000 nM |
| HAEGTFTSDVSK([γGlu-AEEA-AEEA-13‑carboxytridecanoyl])YLEEQAARK([γGlu-AEEA-AEEA-13‑carboxytridecanoyl])FIAHLVG [GLP-1 derivative of Example 29: [Lys18,Glu22,Arg26,Lys27,His31,Gly34]-GLP-1-(7-34)-peptide] | < 1000 nM |
| HSEGTFTSDVSK([AEEA-AEEA-γGlu-13‑carboxytridecanoyl])YLEEQAVREFIAK([AEEA-AEEA-γGlu-13‑carboxytridecanoyl])LVG [GLP-1 derivative of Example 14: [Ser8,Lys18,Glu22,Val25,Arg26,Lys31,Gly34]-GLP-1-(7-34)-peptide] | < 1000 nM |
| HAEGTFTSDVSK([AEEA-AEEA-γGlu-Decanoyl(10-(4-HOOC-PhO))])YLEEQAARK([AEEA-AEEA-γGlu-Decanoyl(10-(4-HOOC-PhO))])FIAHLVG [GLP-1 derivative of Example 30: [Lys18,Glu22,Arg26,Lys27,His31,Gly34]-GLP-1-(7-34)-peptide] | < 1000 nM |
| B1 | < 1000 nM |
| H[Aib]EGTFTSDVSK([AEEA-AEEA-γGlu-Decanoyl(10-(4-HOOC-PhO))])YLEGQAAK([AEEA-AEEA-γGlu-Decanoyl(10-(4-HOOC-PhO))])EFIAWLVQGRG [GLP-1 derivative of Example 92: [Aib8,Lys18,Gln34]-GLP-1-(7-37)-peptide] | < 1000 nM |
| B2 | < 1000 nM |
| B3 | < 1000 nM |
| H[Aib]EGTLTSDVSK([AEEA-AEEA-γGlu-Decanoyl(10-(4-HOOC-PhO))])YLEGQAAK([AEEA-AEEA-γGlu-Decanoyl(10-(4-HOOC-PhO))])EFIAWLVQGRG [GLP-1 derivative of Example 139: [Aib8,Leu12,Lys18,Gln34]-GLP-1-(7-37)-peptide] | < 1000 nM |
| H[Aib]EGTFTSDVSK([AEEA-AEEA-γGlu-13‑carboxytridecanoyl])YLEGQAVREFIAK([AEEA-AEEA-γGlu-13‑carboxytridecanoyl])LVRGRG [GLP-1 derivative of Example 112: [Aib8,Lys18,Val25,Arg26,Lys31,Arg34]-GLP-1-(7-37)-peptide] | < 1000 nM |
| B4 | < 1000 nM |

— patent US9708383 (Novo Nordisk, dated 2017)
